# Data taken from the supplement of paper PMC10567573.
# B1: BCL2L13 (parent)
# chain: QSLDQEILLKVKTEIEEELKSLDK
# Variants of: B1
# Assay: protein stability index of a GFP-peptide fusion (GPS, HEK-293T) (PSI 1-6); higher = more stable
# Settings: c terminus: a fixed tail appended
# 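Further: lentivirally expressed fusions sorted by FACS into six bins by GFP to DsRed ratio, PSI derived from sequencing read proportions per bin multiplied by bin number.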
row,Variant,protein stability index
1,KSLDQEILLKVKTEIEEELKSLDK,4.38
2,QSLDQEILLKVKTEDEEELKSLDK,5.89
3,QSLDQEILLKVKTEIEEELKSLCK,3.42
4,QSWDQEILLKVKTEIEEELKSLDK,4.66
5,QSLDQEILLKVKTEIEKELKSLDK,4.41
6,QSLDQAILLKVKTEIEEELKSLDK,3.94
7,QSLDQEILLKVKTEIEEELKSLDP,5.06
8,QSLDQEILLKVKTEIEERLKSLDK,4.16
9,QSLDQTILLKVKTEIEEELKSLDK,4.62
10,QSLDEEILLKVKTEIEEELKSLDK,4.8
11,QSLDQEILWKVKTEIEEELKSLDK,4.4
12,QSLDQEILLKVKPEIEEELKSLDK,5.34
13,QSLDQRILLKVKTEIEEELKSLDK,3.67
14,QSLDQEILLKVKTEIEEELKVLDK,4.73
15,QSQDQEILLKVKTEIEEELKSLDK,5.41
16,QSCDQEILLKVKTEIEEELKSLDK,4.97
17,QSLDQEILLKVKTEIEEEMKSLDK,5.4
18,QSLDQEMLLKVKTEIEEELKSLDK,5.3
19,QRLDQEILLKVKTEIEEELKSLDK,4.49
20,QSLDQEILLKVKTAIEEELKSLDK,3.4
21,QSLDQEILLKVKTGIEEELKSLDK,5.05
22,QSLDQEILLIVKTEIEEELKSLDK,3.21
23,QSLKQEILLKVKTEIEEELKSLDK,4.55
24,QSLDQEILLEVKTEIEEELKSLDK,5.2

row,Variant,protein stability index
1,QSLDQEILLKVKTEIEEMLKSLDK,1.98
2,QSLDQEILLKVTTEIEEELKSLDK,4.73
3,FSLDQEILLKVKTEIEEELKSLDK,3.89
4,QSLDQEILLKVKTWIEEELKSLDK,2.47
5,QSLDQEILLKVKTEINEELKSLDK,5.02
6,QTLDQEILLKVKTEIEEELKSLDK,5.16
7,QYLDQEILLKVKTEIEEELKSLDK,4
8,QSLDQEILLKVKTPIEEELKSLDK,4.31
9,QSLDQEILLKVKTEIEEELKSLDD,5.27
10,QSLDQEYLLKVKTEIEEELKSLDK,5.46
11,QSTDQEILLKVKTEIEEELKSLDK,4.99
12,QSLDQEILLKLKTEIEEELKSLDK,3.5
13,QSLDQEILLKVKTECEEELKSLDK,5.12
14,QSLDQEDLLKVKTEIEEELKSLDK,5.68
15,QSLDQEILLKVKTMIEEELKSLDK,3.7
16,QGLDQEILLKVKTEIEEELKSLDK,3.38
17,QSLDQEILLKVKTETEEELKSLDK,5.76
18,QSLDQEILLKCKTEIEEELKSLDK,4.77
19,QSLDQEILLKVKTEIEEELKSLMK,2.33
20,QSLDQEILLKVKTEIEEELKPLDK,4.97
21,QSLDQEILLKVKTEIEEELKSKDK,5.47
22,QSLDQEILLKVKTEIEEELPSLDK,5.35
23,QSVDQEILLKVKTEIEEELKSLDK,5.31
24,QSLDQEILLKVKTEGEEELKSLDK,5.61

row,Variant,protein stability index
1,QSLDSEILLKVKTEIEEELKSLDK,4.51
2,QSLDQEILLKVKTEIEECLKSLDK,3.41
3,QSLDQEILLKVKTEIEEELWSLDK,4.91
4,QSLDQEILLKVKDEIEEELKSLDK,4.44
5,QSLSQEILLKVKTEIEEELKSLDK,4.42
6,QSFDQEILLKVKTEIEEELKSLDK,4.87
7,QSLDQEIVLKVKTEIEEELKSLDK,5.32
8,QSLDQEILLKVKTEIEEELYSLDK,4.3
9,QSLDQEILLKVKTEIEIELKSLDK,3.49
10,QSLIQEILLKVKTEIEEELKSLDK,2.28
11,QSLDQEILLKVKTEIENELKSLDK,4.11
12,QSLDQEILLKVKTEEEEELKSLDK,5.8
13,QSLDQEILLKVKTEIEEELHSLDK,4.48
14,QSLDQEILLKVKTEIREELKSLDK,4.79
15,QSLDQEILLKVKTEIEEELTSLDK,5.09
16,QSLDQEILLKVKTEIDEELKSLDK,5.17
17,QSLDQEILLKVKTEIYEELKSLDK,3.87
18,QSLDQEILLKVKTEIEDELKSLDK,5.13
19,QSLDQEILLKVHTEIEEELKSLDK,4.71
20,QSLDQEILLKVKTEICEELKSLDK,3.97
21,QSLDQEILLKVKTEIEEELKLLDK,4.46
22,QSLDQEILYKVKTEIEEELKSLDK,4.45
23,QSLDQEIALKVKTEIEEELKSLDK,5.62
24,QSLDQEILLKVKTEIEEEVKSLDK,5.63

row,Variant,protein stability index
1,QSLDQEILKKVKTEIEEELKSLDK,4.81
2,QSLDQEILLKVKTEPEEELKSLDK,5.92
3,QSLDQEILLKPKTEIEEELKSLDK,5.61
4,QSLDQEILLKVKTEISEELKSLDK,4.93
5,QSLDQEILLKVKTEIEEVLKSLDK,3.69
6,QSLDIEILLKVKTEIEEELKSLDK,2.95
7,QSLDQEILLKVKTEIEEDLKSLDK,5.58
8,QSLDQEILLRVKTEIEEELKSLDK,3.09
9,QSLDQEILCKVKTEIEEELKSLDK,5
10,QSLDQEILLKVKTEIEEELKSLDH,4.36
11,QSLDQEILLKVKTEIEEWLKSLDK,2.8
12,QSLFQEILLKVKTEIEEELKSLDK,2.34
13,DSLDQEILLKVKTEIEEELKSLDK,4.78
14,QSLDQEILLQVKTEIEEELKSLDK,5.35
15,QSLDQEILLKVKMEIEEELKSLDK,3.65
16,QSLDQEILLKVKTEIEEYLKSLDK,2.17
17,QSLDQEILLKVKTEIEEGLKSLDK,4.62
18,QSLDQEILLKVKTEIEEELKSNDK,5.16
19,QSLDQEIRLKVKTEIEEELKSLDK,5.71
20,QSLDQEILLKVKTEIEEILKSLDK,2.58
21,QSLDQEILLKVKTEIEEELKSVDK,5.2
22,QSLDQPILLKVKTEIEEELKSLDK,5.35
